Measured values as given in patent US7232671.

Biological target: purified bovine transducin (alpha subunit is the ADP-ribose acceptor), P04695

Protein	transferase activity	ADP-ribosyltransferase activity (cpm)
full-length recombinant S1 with the Arg->Lys mutation at residue 9 (protein) DDPPATVYKYDSRPPEDVFQNGFTAWGNNDNVLDHLTGRSCQVGSSNSAFVSTSSSRRYTEVYLEHRMQEAVEAERAGRGTGHFIGYIYEVRADNNFYGAASSYFEYVDTYGDNAGRILAGALATYQSEYLAHRRIPPENIRRVTRVYHNGITGETTTTEYSNARYVSQHTRANPNPYTSRRSVASIVGTLVRMAPVIGACMARQAESSEAMAAWSERAGEAMVLVYYESIAYS	transferase activity was reduced by a factor of approximately 1000	
S1 mutant 7-2 (Arg9->Asn, Ser12->Gly in S1/6A) (protein) MVPPATVYNYDGRPPEDVFQNGFTAWGNNDNVLDHLTGRSCQVGSSNSAFVSTSSSRRYTEVYLEHRMQEAVEAERAGRGTGHFIGYIYEVRADNNFYGAASSYFEYVDTYGDNAGRILAGALATYQSEYLAHRRIPPENIRRVTRVYHNGITGETTTTEYSNARYVSQHTRANPNPYTSRRSVASIVGTLVRMAPVIGACMARQAESSEAMAAWSERAGEAMVLVYYESIAYS		753 cpm
S1 mutant 1-1 (Arg13->Lys in S1/6A) (protein) MVPPATVYRYDSKPPEDVFQNGFTAWGNNDNVLDHLTGRSCQVGSSNSAFVSTSSSRRYTEVYLEHRMQEAVEAERAGRGTGHFIGYIYEVRADNNFYGAASSYFEYVDTYGDNAGRILAGALATYQSEYLAHRRIPPENIRRVTRVYHNGITGETTTTEYSNARYVSQHTRANPNPYTSRRSVASIVGTLVRMAPVIGACMARQAESSEAMAAWSERAGEAMVLVYYESIAYS		7390 ± 1370 cpm
S1 mutant 3-1 (Asp11->Glu in S1/6A) (protein) MVPPATVYRYESRPPEDVFQNGFTAWGNNDNVLDHLTGRSCQVGSSNSAFVSTSSSRRYTEVYLEHRMQEAVEAERAGRGTGHFIGYIYEVRADNNFYGAASSYFEYVDTYGDNAGRILAGALATYQSEYLAHRRIPPENIRRVTRVYHNGITGETTTTEYSNARYVSQHTRANPNPYTSRRSVASIVGTLVRMAPVIGACMARQAESSEAMAAWSERAGEAMVLVYYESIAYS		13500 ± 1600 cpm
S1 mutant 4-1 (Arg9->Lys in S1/6A) (protein) MVPPATVYKYDSRPPEDVFQNGFTAWGNNDNVLDHLTGRSCQVGSSNSAFVSTSSSRRYTEVYLEHRMQEAVEAERAGRGTGHFIGYIYEVRADNNFYGAASSYFEYVDTYGDNAGRILAGALATYQSEYLAHRRIPPENIRRVTRVYHNGITGETTTTEYSNARYVSQHTRANPNPYTSRRSVASIVGTLVRMAPVIGACMARQAESSEAMAAWSERAGEAMVLVYYESIAYS		754 cpm
S1 mutant 5-1 (Tyr8->Phe in S1/6A) (protein) MVPPATVFRYDSRPPEDVFQNGFTAWGNNDNVLDHLTGRSCQVGSSNSAFVSTSSSRRYTEVYLEHRMQEAVEAERAGRGTGHFIGYIYEVRADNNFYGAASSYFEYVDTYGDNAGRILAGALATYQSEYLAHRRIPPENIRRVTRVYHNGITGETTTTEYSNARYVSQHTRANPNPYTSRRSVASIVGTLVRMAPVIGACMARQAESSEAMAAWSERAGEAMVLVYYESIAYS		26400 ± 1320 cpm
S1/6A (recombinant pertussis toxin S1 analog, parent construction 6A) (protein) MVPPATVYRYDSRPPEDVFQNGFTAWGNNDNVLDHLTGRSCQVGSSNSAFVSTSSSRRYTEVYLEHRMQEAVEAERAGRGTGHFIGYIYEVRADNNFYGAASSYFEYVDTYGDNAGRILAGALATYQSEYLAHRRIPPENIRRVTRVYHNGITGETTTTEYSNARYVSQHTRANPNPYTSRRSVASIVGTLVRMAPVIGACMARQAESSEAMAAWSERAGEAMVLVYYESIAYS		23400 ± 950 cpm
S1 mutant 2-2 (Ser12->Gly in S1/6A) (protein) MVPPATVYRYDGRPPEDVFQNGFTAWGNNDNVLDHLTGRSCQVGSSNSAFVSTSSSRRYTEVYLEHRMQEAVEAERAGRGTGHFIGYIYEVRADNNFYGAASSYFEYVDTYGDNAGRILAGALATYQSEYLAHRRIPPENIRRVTRVYHNGITGETTTTEYSNARYVSQHTRANPNPYTSRRSVASIVGTLVRMAPVIGACMARQAESSEAMAAWSERAGEAMVLVYYESIAYS		22300 ± 2100 cpm
S1 mutant 6-1 (Asp11->Pro, Pro14->Asp in S1/6A) (protein) MVPPATVYRYPSRDPEDVFQNGFTAWGNNDNVLDHLTGRSCQVGSSNSAFVSTSSSRRYTEVYLEHRMQEAVEAERAGRGTGHFIGYIYEVRADNNFYGAASSYFEYVDTYGDNAGRILAGALATYQSEYLAHRRIPPENIRRVTRVYHNGITGETTTTEYSNARYVSQHTRANPNPYTSRRSVASIVGTLVRMAPVIGACMARQAESSEAMAAWSERAGEAMVLVYYESIAYS		764 cpm
S1 mutant 8-1 (Tyr8->Leu, Arg9->Glu in S1/6A) (protein) MVPPATVLEYDSRPPEDVFQNGFTAWGNNDNVLDHLTGRSCQVGSSNSAFVSTSSSRRYTEVYLEHRMQEAVEAERAGRGTGHFIGYIYEVRADNNFYGAASSYFEYVDTYGDNAGRILAGALATYQSEYLAHRRIPPENIRRVTRVYHNGITGETTTTEYSNARYVSQHTRANPNPYTSRRSVASIVGTLVRMAPVIGACMARQAESSEAMAAWSERAGEAMVLVYYESIAYS		926 cpm
